Test results from the supplement of paper PMC10567573.

B1: NECAB1 (parent)
chain: FSPNSPQFNVSGPGLLEEDNQWMT

Variants of: B1
Experiment: protein stability index of a GFP-peptide fusion (GPS, HEK-293T) (PSI 1-6); higher = more stable
Details: c terminus: a fixed tail appended
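Note: lentivirally expressed fusions sorted by FACS into six bins by GFP to DsRed ratio, PSI derived from sequencing read proportions per bin multiplied by bin number.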

| Variant | protein stability index |
| --- | --- |
| FSPNSPQFNVSGPGLLEELNQWMT | 2.3 |
| FSPNSPQFNVSGPGLLEECNQWMT | 2.72 |
| FSPNSPQFNVSGPGLLEEINQWMT | 2.55 |
| FSPNSPQFNVSGPGLLEEENQWMT | 2.78 |
| FSPNSPQFNVSGPGLLEEFNQWMT | 2.12 |
| FSPNSPQFNVSGPGLLEEKNQWMT | 2.18 |
| FSPNSPQFNVSGPGLLEEHNQWMT | 2.79 |
| FSPNSPQFNVSGPGLLEEANQWMT | 2.11 |
| FSPNSPQFNVSGPGLLEEGNQWMT | 2.33 |
| FSPNSPQFNVSGPGLLEEMNQWMT | 2.57 |
| FSPNSPQFNVSGPGILEEDNQWMT | 2.98 |
| FSPNSPQFNVSGPGWLEEDNQWMT | 2.68 |
| FSPNSPQFNVSGPGFLEEDNQWMT | 2.91 |
| FSPNSPQFNVSGPGRLEEDNQWMT | 2.51 |
| FSPNSPQFNVSGPGKLEEDNQWMT | 2.97 |
| FSPNSPQFNVSGPGYLEEDNQWMT | 3.05 |
| FSPNSPQFNVSGPGNLEEDNQWMT | 3.27 |
| FSPNSPQFNVSGPGTLEEDNQWMT | 3.25 |
| FSPNSPQFNVSGPGQLEEDNQWMT | 3.06 |
| FSPNSPQFNVSGPGCLEEDNQWMT | 3.04 |
| FSPNSPQFNVSGPGSLEEDNQWMT | 3.3 |
| FSPNSPQFNVSGPGDLEEDNQWMT | 3.7 |
| FSPNSPQFNVSGPGALEEDNQWMT | 3.26 |
| FSPNSPQFNVSGPGMLEEDNQWMT | 3.22 |

| Variant | protein stability index |
| --- | --- |
| FSPNSPQFNVSGPGELEEDNQWMT | 3.46 |
| FSPNSPQFNVSGPGVLEEDNQWMT | 3.23 |
| FSPNSPQFNVSGPGPLEEDNQWMT | 2.98 |
| FSPNSPQFNVSGPGGLEEDNQWMT | 2.91 |
| FSPNSPQFNVSGPGHLEEDNQWMT | 3.19 |
| FSPNSPQFNVSGPGLLSEDNQWMT | 2.98 |
| FSPNSPQFNVSGPGLLMEDNQWMT | 2.54 |
| FSPNSPQFNVSGPGLLTEDNQWMT | 2.36 |
| FSPNSPQFNVSGPGLLQEDNQWMT | 3.13 |
| FSPNSPQFNVSGPGLLCEDNQWMT | 2.04 |
| FSPNSPQFNVSGPGLLNEDNQWMT | 2.33 |
| FSPNSPQFNVSGPGLLKEDNQWMT | 1.97 |
| FSPNSPQFNVSGPGLLPEDNQWMT | 2.58 |
| FSPNSPQFNVSGPGLLYEDNQWMT | 2.46 |
| FSPNSPQFNVSGPGLLWEDNQWMT | 2.82 |
| FSPNSPQFNVSGPGLLVEDNQWMT | 2.33 |
| FSPNSPQFNVSGPGLLAEDNQWMT | 2.4 |
| FSPNSPQFNVSGPGLLLEDNQWMT | 2.29 |
| FSPNSPQFNVSGPGLLIEDNQWMT | 2.53 |
| FSPNSPQFNVSGPGLLGEDNQWMT | 2.49 |
| FSPNSPQFNVSGPGLLFEDNQWMT | 1.69 |
| FSPNSPQFNVSGPGLLHEDNQWMT | 2.72 |
| FSPNSPQFNVSGPGLLDEDNQWMT | 2.74 |
| FSPNSPQFNVSGPGLLREDNQWMT | 2.86 |

| Variant | protein stability index |
| --- | --- |
| FSPNSPQFNVSGPGLLETDNQWMT | 2.23 |
| FSPNSPQFNVSGPGLLESDNQWMT | 1.88 |
| FSPNSPQFNVSGPGLLENDNQWMT | 2.83 |
| FSPNSPQFNVSGPGLLERDNQWMT | 2.14 |
| FSPNSPQFNVSGPGLLEPDNQWMT | 1.84 |
| FSPNSPQFNVSGPGLLEQDNQWMT | 1.97 |
| FSPNSPQFNVSGPGLLECDNQWMT | 1.89 |
| FSPNSPQFNVSGPGLLEWDNQWMT | 2.14 |
| FSPNSPQFNVSGPGLLEIDNQWMT | 2.4 |
| FSPNSPQFNVSGPGLLEHDNQWMT | 2.39 |
| FSPNSPQFNVSGPGLLEMDNQWMT | 2.65 |
| FSPNSPQFNVSGPGLLELDNQWMT | 2.03 |
| FSPNSPQFNVSGPGLLEDDNQWMT | 2.91 |
| FSPNSPQFNVSGPGLLEADNQWMT | 2.82 |
| FSPNSPQFNVSGPGLLEVDNQWMT | 2.31 |
| FSPNSPQFNVSGPGLLEYDNQWMT | 1.82 |
| FSPNSPQFNVSGPGLLEKDNQWMT | 3.2 |
| FSPNSPQFNVSGPGLLEFDNQWMT | 2.61 |
| FSPNSPQFNVSGPGLLEGDNQWMT | 2.02 |
| FSPNSPQFNVSGPGLYEEDNQWMT | 2.73 |
| FSPNSPQFNVSGPGLSEEDNQWMT | 3.23 |
| FSPNSPQFNVSGPGLNEEDNQWMT | 2.97 |
| FSPNSPQFNVSGPGLEEEDNQWMT | 4 |
| FSPNSPQFNVSGPGLTEEDNQWMT | 3.53 |

| Variant | protein stability index |
| --- | --- |
| FSPNSPQFNVSGPGLWEEDNQWMT | 2.25 |
| FSPNSPQFNVSGPGLFEEDNQWMT | 2.42 |
| FSPNSPQFNVSGPGLCEEDNQWMT | 3.03 |
| FSPNSPQFNVSGPGLMEEDNQWMT | 2.66 |
| FSPNSPQFNVSGPGLREEDNQWMT | 3.12 |
| FSPNSPQFNVSGPGLQEEDNQWMT | 3.54 |
| FSPNSPQFNVSGPGLDEEDNQWMT | 3.94 |
| FSPNSPQFNVSGPGLKEEDNQWMT | 2.94 |
| FSPNSPQFNVSGPGLVEEDNQWMT | 3.18 |
| FSPNSPQFNVSGPGLIEEDNQWMT | 2.91 |
| FSPNSPQFNVSGPGLGEEDNQWMT | 2.73 |
| FSPNSPQFNVSGPGLAEEDNQWMT | 3.29 |
| FSPNSPQFNVSGPGLPEEDNQWMT | 3.52 |
| FSPNSPQFNVSGPGLHEEDNQWMT | 3.98 |
| FSPNSPQFNVSGPVLLEEDNQWMT | 2.89 |
| FSPNSPQFNVSGPQLLEEDNQWMT | 2.74 |
| FSPNSPQFNVSGPSLLEEDNQWMT | 3.04 |
| FSPNSPQFNVSGPRLLEEDNQWMT | 2.63 |
| FSPNSPQFNVSGPPLLEEDNQWMT | 3.17 |
| FSPNSPQFNVSGPWLLEEDNQWMT | 1.96 |
| FSPNSPQFNVSGPTLLEEDNQWMT | 2.52 |
| FSPNSPQFNVSGPYLLEEDNQWMT | 2.22 |
